This note sets out measurements from paper PMC10127259.

What all share (details): remark: other sources report otherwise
The target in experiment [1] is T1, Nt17 peptide (the first 17 amino acids at the N-terminus of huntingtin), P42858.
T1 chain: MATLEKLMKAFESLKSF
The experiment in a line: native MS; cVSSI-MS, positive ion mode; Nt17 10 uM incubated with POPG vesicles with 20% exogenous cholesterol, 10:1 lipid:peptide, 24 h at 37 °C, 10 mM ammonium acetate; peak areas normalised to [M + 2H]2+.

Experiment [2] has as its target T1, Nt17 peptide (the first 17 amino acids …). The experiment in a line: native MS; cVSSI-MS, positive ion mode; Nt17 10 uM incubated with POPC vesicles with 20% exogenous cholesterol, 10:1 lipid:peptide, 24 h at 37 °C, 10 mM ammonium acetate; peak areas normalised to [M + 2H]2+.
Experiment [3] has the same target. Nature of the experiment: native MS; cVSSI-MS, positive ion mode; Nt17 10 uM incubated with pure POPC vesicles (0% cholesterol), 10:1 lipid:peptide, 24 h at 37 °C, 10 mM ammonium acetate; peak areas normalised to [M + 2H]2+.
Experiment [4] shares this target. Nature of the experiment: native MS; cVSSI-MS, positive ion mode; Nt17 10 uM incubated with DOPC vesicles with 20% exogenous cholesterol, 10:1 lipid:peptide, 24 h at 37 °C, 10 mM ammonium acetate; peak areas normalised to [M + 2H]2+.
The target is the same in experiment [5]. The experiment in a line: native MS; cVSSI-MS, positive ion mode; Nt17 10 uM incubated with pure DOPC vesicles (0% cholesterol), 10:1 lipid:peptide, 24 h at 37 °C, 10 mM ammonium acetate; peak areas normalised to [M + 2H]2+.

B1: Nt17 peptide (the first 17 amino acids at the N-terminus of huntingtin), P42858 1-17 (peptide)
peptide: MATLEKLMKAFESLKSF
Take B1: in experiment [1], the relative peak area of [2M + 2L] (2 Nt17 + 2 POPG), against [M + 2H]2+ is 23%; the relative peak area of [2M + 3L] (2 Nt17 + 3 POPG), against [M + 2H]2+ turned out to be 0.6%; the stoichiometry N (commonly the number of molecules, sites or subunits per partner or assembly) amounted to 2. In experiment [2], the relative integrated peak area of [2M + 2L] (2 Nt17 + 2 POPC), against [M + 2H]2+ was found to be 0.11%; the relative integrated peak area of [3M + 1L] (3 Nt17 + 1 POPC), against [M + 2H]2+ is 1.1%; the total relative integrated peak area of complexes with two peptides, against [M + 2H]2+ was found to be 2.7%. Moreover, in experiment [3], the relative integrated peak area of [2M + 1L] (2 Nt17 + 1 POPC), against [M + 2H]2+ was 1.3% and the relative integrated peak area of [3M + 1L] (3 Nt17 + 1 POPC), against [M + 2H]2+ is 0.8%. Further, in experiment [4], the relative peak area of [2M + 3L] (2 Nt17 + 3 DOPC), against [M + 2H]2+ turned out to be 0.15%; the total relative peak area of complexes with four peptides, against [M + 2H]2+ came out at 1.2%; the total relative peak area of complexes with three peptides, against [M + 2H]2+ was determined as 4%; the total relative peak area of complexes with two peptides, against [M + 2H]2+ amounted to 8%. In experiment [5], the relative peak area of [2M + 3L] (2 Nt17 + 3 DOPC), against [M + 2H]2+ is 0.45%; the relative peak area of [3M + 1L] (3 Nt17 + 1 DOPC), against [M + 2H]2+ turned out to be 3.3%; the relative peak area of [4M + 1L] (4 Nt17 + 1 DOPC), against [M + 2H]2+ was found to be 0.98%; the total relative peak area of complexes with three peptides, against [M + 2H]2+ stood at 3.6%. Besides, in experiment [5], the total relative peak area of complexes with two peptides, against [M + 2H]2+ was 10.3%.
